The values below come from patent US12123009B2, “Methods and compositions for PPO herbicide tolerance in plants” (Monsanto Technology LLC, priority 2015, dated 2024).

Experiment [1] relates to transgenic maize plants. As to the kind of experiment: R0 multi-copy transgenic maize S-3100 spray test. The class given is in vivo, maize (LH244). An excerpt: For maize in planta testing, immature maize (LH244) embryos were transformed with using Agrobacterium tumefaciens and standard methods known in the art. […] Leaf samples were collected from R0 plants and screened by PCR to determine the number of copies of the transgene inserted into the plant genome. […] Plants containing multiple copies (multi-copy) were sprayed as follows: […]

In experiment [2] the test system is transgenic maize plants. As to the kind of experiment: R0 transgenic maize 40 g/ha S-3100 spray test. The format is in vivo. The text has this: H_N60 (SEQ ID NO:3). […] These five constructs had the same promoter plus leader plus intron combination, with two different targeting peptide (TP) sequences, and the same 3′UTR sequence. Leaf samples were taken from the R0 plants and analyzed by PCR to determine the transgene copy number. Single copy plants for up to 12 unique events per construct were transplanted to pots, selfed and outcrossed to generate R1 and F1 seed, respectively, for future testing. Multi-copy plants and extra single copy plants were sprayed with 40 grams/ha 5-3100 at approximately the V5 growth stage and injury ratings were taken 7 days after treatment. The average percent (%) injury for all plants expressing each PPO enzyme and the number of plants that were deemed highly tolerant (less than 10% injury) was noted, where each plant is a unique single or multi-copy transformant.

Another experiment relates to F1 maize. As to the kind of experiment: Efficacy field trial of F1 maize. The class given is in vivo. As to conditions: F1 transgenic maize greenhouse and field data. On the procedure: This F1 population was segregating (50% hemizygous and 50% null) and selection for transgenic plants was not conducted prior to injury ratings. The overall average injury ratings for such a population are expected to be higher than a homogenous transgenic population since it is difficult to discern non-transgenic plants from transgenic plants. The trials were conducted at two locations with two replicates and 3 treatments per construct. Non-transgenic maize plants were used as a negative control. The herbicide application treatments were as follows: Treatment 1 was 0.036 lb ai/acre S-3100 applied at V2 followed by (fb) V4 fb V8; Treatment 2: was 0.072 lb ai/acre S-3100 applied at V2 fb V4 fb V8; Treatment 3: was 0.144 lb ai/acre S-3100 applied at V2 fb V4 fb V8. Crop Injury Percent ratings were assessed at the V2 growth stage (CIPV2) and at the V4 growth stage (CIPV4) at 5 to 7 days after treatment (the error V2 and error V4 are half of the least significant difference (LSD)). The crop injury ratings were combined for both locations.

The test system of the next experiment is soybean plantlets. As to the kind of experiment: High-throughput soybean screening for herbicide tolerance (plantlets). The class given is in vivo, soybean (A3555). The arrangement: key: 0 for poor tolerance, high damage, low green coloration; 1 for some tolerance, average damage, moderate green coloration; 2 for good tolerance, low damage, high green coloration. The note with it: S-3100 spray five weeks post-transformation, scored day four. The text has this: A high-throughput plant transformation and screening method was used to evaluate large numbers of constructs in transgenic plants for herbicide tolerance in early transformation plantlet tissue. This allowed for faster and higher volume screening of construct configurations and PPO enzymes.
This permitted the side-by-side comparison of seven different HemG PPO enzymes with thirty-seven different targeting peptides using the same promoter and 3′UTR elements for gene expression. These plant transformation constructs were used to transform soybean excised embryos (germplasm A3555) using A. tumefaciens and standard methods known in the art. Four hundred explants were inoculated for each construct resulting in twelve containers per construct. A sterile PPO herbicide solution was used for herbicide tolerance testing. The herbicide solution consisted of 0.3 g of S-3100 in crop oil concentrate (5.0 mL) and 495 mL of deionized water. This was filtered through a 0.45 micron Nalgene® Rapid-Flow™ Tissue Culture Filter Unit and Surfactant-Free Cellulose Acetate membrane filter unit (VWR, Radnor, PA, USA). The resulting sterile solution was shaken before application.
At five weeks post-transformation, four of the twelve plant containers per construct were sprayed with two passes of the sterile PPO herbicide solution. The treated plantlets were then enclosed in the container and received at least 15 hours of light exposure post spray each day for four days. At the end of day four post application of S-3100, the treated plantlets were photographed and scored on a visual scale of green coloration (green coloration was representative of healthy photosynthetic plant tissue as compared to photo-bleached tissue) versus damage. The scoring values were 0 for poor tolerance, high damage, low green coloration; 1 for some tolerance, average damage, moderate green coloration; and 2 for good tolerance, low damage, high green coloration. The scoring for each construct is presented in Table 9, where n.d. indicates the analysis was not conducted.

For experiment [3], the system named is hemG knockout E. coli strain. The format is cell-based. The note with it: LB medium plates (heme-free).
For experiment [4], the system named is hemG knockout E. coli strain. The class given is cell-based. As to conditions: LB liquid medium, acifluorfen (1 mM), flumioxazin (0.5 mM), lactofen (0.5 mM), fomesafen (1 mM), S-3100 (100 uM).
The mark [5] stands for this setting: 40 grams/ha S-3100 at V5, 7 days after treatment, R0 plants.

B1: H_N10: E. coli wild-type HemG protoporphyrinogen oxidase, SEQ ID NO:4 (SEQ ID NO:13 lacking start methionine) (protein, listed as Escherichia coli)
chain: MKTLILFSTRDGQTREIASYLASELKELGIQADVANVHRIEEPQWENYDRVVIGASIRYGHYHSAFQEFVKKHATRLNSMPSAFYSVNLVARKPEKRTPQTNSYARKFLMNSQWRPDRCAVIAGALRYPRYRWYDRFMIKLIMKMSGGETDTRKEVVYTDWEQVANFAREIAHLTDKPTLK
B1: the “Average Injury” value in the experiment with transgenic maize plants [1] (Treatment 1: 5 g/ha S-3100 at V5 followed by 10 g/ha at V7, total 15 g/ha, 7 days after final treatment, H_N10 in construct 6) stood at 28.9%; with transgenic maize plants [1] (Treatment 2: 10 g/ha S-3100 at V5, 7 days after treatment, H_N10 in construct 16), 24.2%; in the experiment with transgenic maize plants [2] (setting [5]) it was 39.5%. The “Highly Tolerant (number of plants with less than 10% injury)” value in the experiment with transgenic maize plants [2] (setting [5]) is 31. Moreover, the “injury rates when expressed in transgenic plants (crop tolerance to a PPO herbicide)” value in the experiment with transgenic maize plants [2] (R0 transgenic maize data) and in the experiment on F1 maize was “reduced injury rates” in each case. Besides, the coloration score in the experiment on soybean plantlets (TP9) came out at 1; with soybean plantlets (TP12) it was 1; with soybean plantlets (TP13), 1; in the experiment with soybean plantlets (TP14) it was 0; in the experiment on soybean plantlets (TP16), 1; in the experiment on soybean plantlets (TP18), 1. Moreover, the coloration score with soybean plantlets (TP19) amounted to 0; in the experiment on soybean plantlets (TP20), 0; with soybean plantlets (TP21), 0; in the experiment with soybean plantlets (TP22) it was 1; with soybean plantlets (TP23), 1; in the experiment on soybean plantlets (TP24), 0. Also, the coloration score in the experiment on soybean plantlets (TP26) is 0; in the experiment on soybean plantlets (TP27), 1; in the experiment on soybean plantlets (TP31), 1; with soybean plantlets (TP33), 1; in the experiment on soybean plantlets (TP36), 0.

B2: Waterhemp: herbicide-sensitive wild-type protoporphyrinogen oxidase from Amaranthus tuberculatus (waterhemp), SEQ ID NO:21; plastid extract in Table 3 (protein, listed as Amaranthus tuberculatus)
chain: MGNISEREEPTSAKRVAVVGAGVSGLAAAYKLKSHGLSVTLFEADSRAGGKLKTVKKDGFIWDEGANTMTESEAEVSSLIDDLGLREKQQLPISQNKRYIARDGLPVLLPSNPAALLTSNILSAKSKLQIMLEPFLWRKHNATELSDEHVQESVGEFFERHFGKEFVDYVIDPFVAGTCGGDPQSLSMHHTFPEVWNIEKRFGSVFAGLIQSTLLSKKEKGGENASIKKPRVRGSFSFQGGMQTLVDTMCKQLGEDELKLQCEVLSLSYNQKGIPSLGNWSVSSMSNNTSEDQSYDAVVVTAPIRNVKEMKIMKFGNPFSLDFIPEVTYVPLSVMITAFKKDKVKRPLEGFGVLIPSKEQHNGLKTLGTLFSSMMFPDRAPSDMCLFTTFVGGSRNRKLANASTDELKQIVSSDLQQLLGTEDEPSFVNHLFWSNAFPLYGHNYDSVLRAIDKMEKDLPGFFYAGNHKGGLSVGKAMASGCKAAELVISYLDSHIYVKMDEKTA
In the case of B2, the “restore growth of the transformed hemG knockout E. coli strain (PPO activity)” value in experiment [3] is “able to restore growth”. The “growth of hemG knockout E. coli strain in the presence of a PPO herbicide” value in experiment [4] is listed as “sensitive”.
